What was measured:
Assay in all cases: binding and/or signaling studies
CXCR4 = molecular target: T1, CXCR4 (human, UniProt P61073-2 1-356)
T1 construct: The construct used is not described
Experimental: (§1) Radioligand displacement studies of various chemotaxis receptors were carried out. For the radioligand binding assay, membranes from HEK293T cells transiently expressing the respective chemokine receptors were incubated with ˜[…] ¹²⁵I-chemokine and increasing concentrations of chemokine (control) or CXCL17. Cells were incubated for 3 h at 4° C. and washed twice with binding buffer containing 0.5 M NaCl. After harvesting the samples with lysis buffer, the remaining cell-bound radioactivity was counted.

CXCR7 = molecular target: T2, CXCR7 (human, UniProt P25106 1-362)
T2 construct: Tested on CXCR7 expressing cells
Experimental: as §1

CCR2 = molecular target: T3, CCR2 (human, UniProt P41597-2 1-360)
T3 sequence: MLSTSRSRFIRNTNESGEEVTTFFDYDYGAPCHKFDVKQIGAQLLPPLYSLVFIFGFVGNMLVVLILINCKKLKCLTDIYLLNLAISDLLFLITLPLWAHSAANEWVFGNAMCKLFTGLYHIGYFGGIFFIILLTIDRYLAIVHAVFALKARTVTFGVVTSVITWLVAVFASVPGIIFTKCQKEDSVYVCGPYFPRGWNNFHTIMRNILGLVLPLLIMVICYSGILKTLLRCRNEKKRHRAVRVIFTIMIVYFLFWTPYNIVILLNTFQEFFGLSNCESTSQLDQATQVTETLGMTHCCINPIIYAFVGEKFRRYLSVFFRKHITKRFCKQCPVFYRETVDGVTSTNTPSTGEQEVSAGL
Experimental: as §1

CCX-CKR = molecular target: T4, CCX-CKR (UniProt Q9NPB9 1-350, limits assumed)
T4 construct: whole, on cells
T4 sequence (looked up): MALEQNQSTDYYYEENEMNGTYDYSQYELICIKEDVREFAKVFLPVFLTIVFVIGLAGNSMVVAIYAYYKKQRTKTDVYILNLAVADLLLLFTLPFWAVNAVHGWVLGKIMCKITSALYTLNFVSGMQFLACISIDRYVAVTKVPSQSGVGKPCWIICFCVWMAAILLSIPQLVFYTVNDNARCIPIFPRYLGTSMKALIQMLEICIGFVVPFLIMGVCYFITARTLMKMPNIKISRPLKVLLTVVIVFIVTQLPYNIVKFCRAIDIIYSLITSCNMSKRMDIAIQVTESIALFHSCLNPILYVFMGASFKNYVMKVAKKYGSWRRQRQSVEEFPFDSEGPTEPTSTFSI
Experimental: as §1

CXCR3 = molecular target: T5, CXCR3 (UniProt P49682 1-368, limits assumed)
T5 construct: whole, on cells
T5 sequence (looked up): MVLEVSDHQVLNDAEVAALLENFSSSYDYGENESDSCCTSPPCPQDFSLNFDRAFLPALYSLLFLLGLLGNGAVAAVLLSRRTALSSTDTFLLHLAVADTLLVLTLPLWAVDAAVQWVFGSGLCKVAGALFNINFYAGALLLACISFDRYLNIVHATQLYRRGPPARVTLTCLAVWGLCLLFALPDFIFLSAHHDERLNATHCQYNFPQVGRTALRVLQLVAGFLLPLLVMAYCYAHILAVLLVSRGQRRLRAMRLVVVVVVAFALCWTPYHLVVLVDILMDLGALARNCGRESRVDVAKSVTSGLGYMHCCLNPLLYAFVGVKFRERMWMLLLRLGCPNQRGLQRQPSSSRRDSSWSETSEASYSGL
Experimental: as §1

T1 sequence (P61073 other isoform, or with tags, fused parts or gaps): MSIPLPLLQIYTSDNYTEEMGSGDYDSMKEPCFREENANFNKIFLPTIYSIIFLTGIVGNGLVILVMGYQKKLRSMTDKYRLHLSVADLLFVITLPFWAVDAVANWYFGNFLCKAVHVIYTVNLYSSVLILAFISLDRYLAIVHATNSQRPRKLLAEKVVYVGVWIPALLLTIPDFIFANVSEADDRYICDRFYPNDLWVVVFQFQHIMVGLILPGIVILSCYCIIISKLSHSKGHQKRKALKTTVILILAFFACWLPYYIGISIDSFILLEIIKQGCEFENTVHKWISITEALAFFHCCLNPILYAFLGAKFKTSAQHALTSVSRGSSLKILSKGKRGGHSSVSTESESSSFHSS
T2 sequence (P25106 whole entry): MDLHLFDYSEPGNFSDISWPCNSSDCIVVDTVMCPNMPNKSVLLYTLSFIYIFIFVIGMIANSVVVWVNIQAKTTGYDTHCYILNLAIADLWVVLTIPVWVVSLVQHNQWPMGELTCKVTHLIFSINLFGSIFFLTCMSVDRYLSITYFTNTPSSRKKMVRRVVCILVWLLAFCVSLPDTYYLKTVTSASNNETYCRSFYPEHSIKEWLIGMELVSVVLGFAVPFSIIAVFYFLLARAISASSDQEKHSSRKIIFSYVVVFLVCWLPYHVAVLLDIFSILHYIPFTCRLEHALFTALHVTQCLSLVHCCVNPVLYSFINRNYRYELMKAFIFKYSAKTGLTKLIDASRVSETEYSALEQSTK

binding result (CXCR4): no binding | binding result (CXCR7): no binding | binding result (CCR2): no binding | binding result (CCX-CKR): no binding | binding result (CXCR3): no binding
B1: recombinant human CXCL17 (chemokine (C-X-C motif) ligand 17) (ligand)
chain: SSLNPGVARGHRDRGQASRRWLQEGGQECECKDWFLRAPRRKFMTVSGLPKKQCPCDHFKGNVKKTRHQRHHRKPNKHSRACQQFLKQCQLRSFALPL
notes: Bought recombinant protein (R&D Systems); also called human recombinant CXCL17
